Experimental data: EP2161338A1

What was measured:
[1] = molecular target: DNAX Leukocyte Associated Immunoglobulin-like Receptor (DLAIR-1), the DX26 antigen, product of the YE01 gene (human) (UniProt Q6GTX8); assay: flow cytometry on U937 myeloid tumor cells, PE goat-anti-mouse-IgG second step
[2] = molecular target: DNAX Leukocyte Associated Immunoglobulin-like Receptor (DLAIR-1), the DX26 antigen, product of the YE01 gene (human) (UniProt Q6GTX8); assay: flow cytometry on Jurkat T cell tumor cells, PE goat-anti-mouse-IgG second step
[3] = molecular target: DNAX Leukocyte Associated Immunoglobulin-like Receptor (DLAIR-1), the DX26 antigen, product of the YE01 gene (human) (UniProt Q6GTX8); assay: flow cytometry on CEM T cell tumor cells, PE goat-anti-mouse-IgG second step
[4] = molecular target: DNAX Leukocyte Associated Immunoglobulin-like Receptor (DLAIR-1), the DX26 antigen, product of the YE01 gene (human) (UniProt Q6GTX8); assay: flow cytometry on Molt4 T cell tumor cells, PE goat-anti-mouse-IgG second step
[5] = molecular target: DNAX Leukocyte Associated Immunoglobulin-like Receptor (DLAIR-1), the DX26 antigen, product of the YE01 gene (human) (UniProt Q6GTX8); assay: flow cytometry on Peer T cell tumor cells, PE goat-anti-mouse-IgG second step
[6] = molecular target: DNAX Leukocyte Associated Immunoglobulin-like Receptor (DLAIR-1), the DX26 antigen, product of the YE01 gene (human) (UniProt Q6GTX8); assay: flow cytometry on HUT78 T cell tumor cells, PE goat-anti-mouse-IgG second step
[7] = molecular target: DNAX Leukocyte Associated Immunoglobulin-like Receptor (DLAIR-1), the DX26 antigen, product of the YE01 gene (human) (UniProt Q6GTX8); assay: flow cytometry on HL60 promyeloid tumor cells, PE goat-anti-mouse-IgG second step
[8] = molecular target: DNAX Leukocyte Associated Immunoglobulin-like Receptor (DLAIR-1), the DX26 antigen, product of the YE01 gene (human) (UniProt Q6GTX8); assay: flow cytometry on CEM T cell tumor cells (DLAIR-positive), PE goat-anti-mouse-IgG second step
[9] = molecular target: DNAX Leukocyte Associated Immunoglobulin-like Receptor (DLAIR-1), the DX26 antigen, product of the YE01 gene (human) (UniProt Q6GTX8); assay: flow cytometry on U937 myeloid tumor cells (DLAIR-positive), PE goat-anti-mouse-IgG second step
[10] = molecular target: DNAX Leukocyte Associated Immunoglobulin-like Receptor (DLAIR-1), the DX26 antigen, product of the YE01 gene (human) (UniProt Q6GTX8); assay: flow cytometry on Jurkat T cell tumor cells (DLAIR-positive), PE goat-anti-mouse-IgG second step
[11] = molecular target: DNAX Leukocyte Associated Immunoglobulin-like Receptor (DLAIR-1), the DX26 antigen, product of the YE01 gene (human) (UniProt Q6GTX8); assay: flow cytometry on Peer T cell tumor cells (DLAIR-positive), PE goat-anti-mouse-IgG second step
[12] = molecular target: DNAX Leukocyte Associated Immunoglobulin-like Receptor (DLAIR-1), the DX26 antigen, product of the YE01 gene (human) (UniProt Q6GTX8); assay: flow cytometry on HL60 promyeloid tumor cells (DLAIR-positive), PE goat-anti-mouse-IgG second step
[13] = molecular target: DNAX Leukocyte Associated Immunoglobulin-like Receptor (DLAIR-1), the DX26 antigen, product of the YE01 gene (human) (UniProt Q6GTX8); assay: flow cytometry on Molt4 T cell tumor cells (DLAIR-positive), PE goat-anti-mouse-IgG second step

Substance | mean fluorescence intensity (mean fluorescence intensity) [1] | mean fluorescence intensity (mean fluorescence intensity) [2] | mean fluorescence intensity (mean fluorescence intensity) [3] | mean fluorescence intensity (mean fluorescence intensity) [4] | mean fluorescence intensity (mean fluorescence intensity) [5] | mean fluorescence intensity (mean fluorescence intensity) [6] | mean fluorescence intensity (mean fluorescence intensity) [7] | mean fluorescence intensity (mean fluorescence intensity) [8] | mean fluorescence intensity (mean fluorescence intensity) [9] | mean fluorescence intensity (mean fluorescence intensity) [10] | mean fluorescence intensity (mean fluorescence intensity) [11] | mean fluorescence intensity (mean fluorescence intensity) [12] | mean fluorescence intensity (mean fluorescence intensity) [13]
DX26 monoclonal antibody | 49.5 | 47.1 | 92.7 | 30.7 | 29.1 | 25.8 | 46.9 |  |  |  |  |  | 
control IgG1 (antibody) |  |  |  |  |  |  |  | < 5 | < 5 | < 5 | < 5 | < 5 | < 5
